doi:10.1101/2021.07.03.450947, “The pore conformation of lymphocyte perforin” (bioRxiv, 2021)

Biological target: the molecule itself
Test: cryo-electron tomography; prepores on liposomes (PC, cholesterol, biotinyl PE 6:3:1) held on streptavidin grids; 20 mM HEPES pH 7.5, 150 mM NaCl, 5 mM CaCl2; 5-10 min at 37°C; protein to lipid about 1:10,000

B1: TMH1-lock mutant of perforin (A144C-W373C) (natural protein, mouse, UniProt P10820 21-554, looked up)
chain: PCYTATRSECKQKHKFVPGVWMAGEGMDVTTLRRSGSFPVNTQRFLRPDRTCTLCKNSLMRDATQRLPVAITHWRPHSSHCQRNVAAAKVHSTEGVAREAAANINNDWRVGLDVNPRPEANMRCSVAGSHSKVANFAAEKTYQDQYNFNSDTVECRMYSFRLVQKPPLHLDFKKALRALPRNFNSSTEHAYHRLISSYGTHFITAVDLGGRISVLTALRTCQLTLNGLTADEVGDCLNVEAQVSIGAQASVSSEYKACEEKKKQHKMATSFHQTYRERHVEVLGGPLDSTHDLLFGNQATPEQFSTWTASLPSNPGLVDYSLEPLHTLLEEQNPKREALRQAISHYIMSRARCQNCSRPCRSGQHKSSHDSCQCECQDSKVTNQDCCPRQRGLAHLVVSNFRAEHLWGDYTTATDAYLKVFFGGQEFRTGVVWNNNNPRWTDKMDFENVLLSTGGPLRVQVWDADYGWDDDLLGSCDRSPHSGFHEVTCELNHGRVKFSYHAKCLPHLTGGTCLEYAPQGLLGDPPGNRSGAVW
modifications: engineered disulphide bond between A144C and W373C
notes: perforin, mouse, with the engineered disulphide A144C-W373C that tethers TMH1 to the core of the MACPF domain; also called A144C-W373C perforin; source: baculovirus/insect cell system, purified from the supernatant
binding result: binds
